Data reported in US20040259196A1, “T cell receptor variants expressed in mesenchymal cells and uses thereof” (priority 2001, published 2004).

Legend:
[1] = test system: anti-peptide SEQ ID NO:37 antibody; experiment: Competition of antibody binding by pre-incubation with the immunizing peptide; design: species or system rabbit; details: pre-incubation of purified immune serum with soluble peptide, 30 min, room temperature
Description: FIGS. 2A-2F show flow cytometric analysis of J^intJ-Cβ2 expression by mesenchymal cells. Mouse embryonic fibroblasts (MEF) (2E) and different MBA-13 cell strains (1-3; 2A-2C, respectively) were stained with preimmunized (histogram I) or immunized (histogram II) purified antibodies from rabbit serum. The rabbits were immunized with a synthetic segment of SEQ ID NO:2, namely SEQ ID NO:37, with the sequence LAEPRGFVCGVE. As a second antibody, we used Fab FITC conjugated donkey anti-rabbit IgG. Staining with second antibody only gave a histogram shown in histogram III. Cells stained with rabbit polyclonal antibodies to irrelevant peptide 1121 of the sequence RGGGGGRGGLHD, similarly produced and purified, served as negative control (histogram IV). Competition of antibody binding was performed by pre-incubation of the purified immune serum with the specific immunizing peptide SEQ ID NO:37 for 30 min at room temperature (2D, histogram). Competition with irrelevant peptide 1121 served as negative control (data not shown). The results of one experiment, out of three performed, are shown.
This strongly supports the conclusion that J^int-Jβ2.6-C protein is present on the surface of the MBA-13 cells. It is noteworthy that thymocytes do express J^int-Jβ2.6-C on the mRNA level but are not reactive with the antibody (FIGS. 2F and 3). […]

[2] = target: J^int-Jβ2.6-C protein (truncated mesenchymal TCRβ lacking the V region) (mouse); experiment: flow cytometry on MBA-13 cells
293T cells = experiment: Cell cycle flow cytometric analysis of transfected 293T cells; type: cell-based, human; details: 293T cells co-transfected with pTα
Description: FIG. 13 Recombinant mesenchymal TCRβ (GFP-J^int-Jβ2.6-C) in a preTCR-like complex causes apoptotic cell death upon overexpression. (A) Immunofluorescence analysis of cells transfected with cDNA constructs encoding a fusion protein of J^int-Jβ2.6-C linked to GFP, together with pTα HA vector. (B) Western blot analysis of extracts from 293T cells transfected with GFP-J^int-Jβ2.6-C together with HA-pTα (lane 1). Control GFP and HA vectors (lane 2), GFP vector and HA-pTα0 (lane 3), HA vector and GFP-J^int-Jβ2.6-C (lane 4) and untransfected cells (lane 5). Immunoblotting was performed with an anti-GFP monoclonal antibody. The position of the fusion protein, GFP-J^int-Jβ2.6-C is indicated (GFP-J^int) as is the position of GFP free protein (GFP). (C) Cell cycle flow cytometric analysis of 293T cells transfected with the indicated vectors. The cell cycle analysis of GFP negative cells that were treated with GFP-J^int-Jβ2.6-C and pTα but remained untransfected (C-I) serves as a representative control; similar patterns were observed following transfection with empty vectors or separately with GFP-J^int-Jβ2.6-C and pTα. […]
Next, we examined the results of overexpression of J^int-Jβ2.6-Cβ. A cDNA construct encoding a fusion protein of J^int-Jβ2.6-C N-terminally linked to green fluorescence protein (GFP) was transfected along with pTα into human 293T cells (FIG. 13). […]

## LAEPRGFVCGVE (listed as Mus musculus) [immunizing peptide]
[1]
  competition of antiserum staining of MBA-13 cells: reduced the ability of the antiserum to stain the cells

## hamster anti-mouse TCRβ monoclonal antibody, clone H57-597
[2]
  percent of the cell population stained: 34%

B1: GFP-J^int-Jβ2.6-Cβ: fusion protein of J^int-Jβ2.6-C N-terminally linked to green fluorescence protein (GFP), expressed from a cDNA construct (protein)
chain: MGEYLAEPRGFVCGVEPLCSYEQYFGPGTRLTVLEDLRNVTPPKVSLFEPSKAEIANKQKATLVCLARGFFPDHVELSWWVNGKEVHSGVSTDPQAYKESNYSYCLSSRLRVSATFWHNPRNHFRCQVQFHGLSEEDKWPEGSPKPVTQNISAEAWGRADCGITSASYHQGVLSATILYEILLGKATLYAVLVSGLVLMAMVKKKNS
modifications: left off: large carriers
notes: fusion protein of J^int-Jβ2.6-C N-terminally linked to green fluorescence protein (GFP), expressed from a cDNA construct
293T cells
  shift of the population to sub-G1, indicating massive apoptosis: 59%
